Tests used:
[1] = Food intake measured three consecutive days per week; type: in vivo; design: key: ns: not significant; *: p < 0.05; **: p < 0.005; ***: p < 0.001; ****: p < 0.0001; conditions: male C57Bl/6 DIO mice, 2-way ANOVA with Dunnett's analysis
Procedure: (§1) Male C57Bl/6 DIO mice, 19-20 weeks old (13-14 weeks on high fat diet) at beginning of dosing, were placed into the following treatment groups: Group A—Vehicle, in which the animals were administered vehicle weekly; Group B—Dulaglutide, in which the animals were administered 0.1 mg/kg (2 nmol/kg) of dulaglutide twice per week; Group C—GIPR Ab, in which the animals were administered 5 mg/kg (33 nmol/kg) of antibody 2.63.1 (having a light and heavy chain sequence of SEQ ID NOs: 105 and 106, respectively) weekly and vehicle weekly (the latter being on the alternate dulaglutide dosing day); Group D—GDF15, in which the animals were administered 0.125 mg/kg (1 nmol/kg) of FcΔ10(−)-(G4S)4-GDF15 (SEQ ID NO: 39) (along with its heterodimerization partner, FcΔ10(+,K) (SEQ ID NO: 32)) weekly and vehicle weekly (the latter on the alternate dulaglutide dosing day); Group E—GDF15+Dulaglutide, in which the animals were administered 0.125 mg/kg (1 nmol/kg) of FcΔ10(−)-(G4S)4-GDF15) (along with its heterodimerization partner, FcΔ10(+,K)) weekly and 0.1 mg/kg (2 nmol/kg) of dulaglutide twice per week; Group F—GDF15+GIPR Ab, in which the animals were administered 0.125 mg/kg (1 nmol/kg) of FcΔ10(−)-(G4S)4-GDF15 (along with its heterodimerization partner, FcΔ10(+,K)) weekly and 5 mg/kg (33 nmol/kg) of antibody 2.63.1 weekly. The animals were dosed for 5 weeks with through subcutaneous injection.

[2] = Body weight change in DIO mice treated for 5 weeks; type: in vivo; design: key to Significance of Body Weight Change: ns: not significant; *: p < 0.05; **: p < 0.005; ***: p < 0.001; ****: p < 0.0001; conditions: subcutaneous; for Significance of Body Weight Change: male C57Bl/6 DIO mice, 2-way ANOVA with Dunnett's analysis; for change in body weight: DIO mice
Procedure: as §1
Body weight was measured twice per week.

B1: GIPR Ab: GIPR antibody 2.63.1 having a light and heavy chain sequence of SEQ ID NOs: 105 and 106 (antibody)
heavy: MGWSYIILFLVATATDVHSQVQLQQPGAELVKPGASVKLSCRASGYTFTSNWMHWVKQRPRQGLEWIGEINPSNGRSNYNEKFKTKATLTVDKSSSTAYMQLSSLTSEDSAVYYCARFYYGTSWFAYWGQGTLVAVSAAKTTPPSVYPLAPGSAAQTNSMVTLGCLVKGYFPEPVTVTWNSGSLSSGVHTFPAVLQSDLYTLSSSVTVPSSTWPSETVTCNVAHPASSTKVDKKIVPRDCGCKPCICTVPEVSSVFIFPPKPKDVLTITLTPKVTCVVVDISKDDPEVQFSWFVDDVEVHTAQTQPREEQFASTFRSVSELPIMHQDWLNGKEFKCRVNSAAFPAPIEKTISKTKGRPKAPQVYTIPPPKEQMAKDKVSLTCMITDFFPEDITVEWQWNGQPAENYKNTQPIMDTDGSYFVYSKLNVQKSNWEAGNTFTCSVLHEGLHNHHTEKSLSHSPGK
light: MKLPVRLLVLMFWIPASSSDVVMTQTPLSLPVSLGDQASISCRSSQSLVHSNGDTYLHWYLQKPGQSPKLLIYKVSNRFSGVPDRFSGSGSGTDFTLKISRVEAADLGVYFCSQSTHVPPFTFGGGTKLEIKRADAAPTVSIFPPSSEQLTSGGASVVCFLNNFYPKDINVKWKIDGSERQNGVLNSWTDQDSKDSTYSMSSTLTLTKDEYERHNSYTCEATHKTSTSPIVKSFNRNEC
- Significance of Food Intake Assay ([1]; D2): ns
- Significance of Food Intake Assay ([1]; D8): ns
- Significance of Food Intake Assay ([1]; D9): ns
- Significance of Food Intake Assay ([1]; D10): ns
- Significance of Food Intake Assay ([1]; D15): ns
- Significance of Food Intake Assay ([1]; D16): ns
- Significance of Food Intake Assay ([1]; D17): ns
- Significance of Food Intake Assay ([1]; D22): * (p < 0.05)
- Significance of Food Intake Assay ([1]; D23): ns
- Significance of Food Intake Assay ([1]; D24): ns
- Significance of Food Intake Assay ([1]; D29): ns
- Significance of Food Intake Assay ([1]; D30): ns
- Significance of Food Intake Assay ([1]; D31): ns
- Significance of Body Weight Change ([2]; D0): ns
- Significance of Body Weight Change ([2]; D3): ns
- Significance of Body Weight Change ([2]; D7): ns
- Significance of Body Weight Change ([2]; D10): ns
- Significance of Body Weight Change ([2]; D14): ns
- Significance of Body Weight Change ([2]; D17): ns
- Significance of Body Weight Change ([2]; D21): ns
- Significance of Body Weight Change ([2]; D31): ns
- Significance of Body Weight Change ([2]; D35): ns
- Significance of Body Weight Change ([2]; D-4): ns
- change in body weight ([2]; five weeks after treatment): 2.24%
- change in body weight ([2]; two weeks after treatment): −0.91%

Reference: patent US20220152154A1, “GROWTH DIFFERENTIATION FACTOR 15 COMBINATION THERAPY” (Amgen Inc., priority 2019, published 2022)
